# B1: Serine/threonine-protein kinase STE20 (Saccharomyces cerevisiae), Q03497 (parent)
# chain: MSNDPSAVSELPDKDSLDNGISNDNERAMGGNGDGGDGLRLPRTTGTLNVNALQKGTNAAHEAGGYKSMDPAKNAETTNDDDNNVVSLDDPIQFTRVSSSSVISGMSSSMSPHSNIDETKSLEAVTPNINTSNITPDHSADNTFSTINASESDHQFNDTLLSKLSLTDSTETIENNATVKHQQPVASSTVNSNKSSTDIRRATPVSTPVISKPSMTTTPRQINSASHSLSNPKHKQHKPKVKPSKPEAKSKPVSVKKSFPSKNPLKNSSPPKKQTEKSYYSSSSKKRKSGSNSGTLRMKDVFTSFVQNIKRNSQDDKRASSSSNNSSSSSITTALRISTPYNAKHIHHVGVDSKTGEYTGLPEEWEKLLTSSGISKREQQQNMQAVMDIVKFYQDVTETNGEDKMFKTFNTTTGLPGSPQVSTPPANSFNKFPPSTSDSHNYGSRTGTPMSNHVMSPTLNTDSSSANGKFIPSRPAPKPPSSASASAPIIKSPVMNSAANVSPLKQTHAPTTPNRTSPNRSSISRNATLKKEEQPLPPIPPTKSKTSPIISTAHTPQQVAQSPKAPAQETVTTPTSKPAQARSLSKELNEKKREERERRKKQLYAKLNEICSDGDPSTKYANLVKIGQGASGGVYTAYEIGTNVSVAIKQMNLEKQPKKELIINEILVMKGSKHPNIVNFIDSYVLKGDLWVIMEYMEGGSLTDVVTHCILTEGQIGAVCRETLSGLEFLHSKGVLHRDIKSDNILLSMEGDIKLTDFGFCAQINELNLKRTTMVGTPYWMAPEVVSRKEYGPKVDIWSLGIMIIEMIEGEPPYLNETPLRALYLIATNGTPKLKEPENLSSSLKKFLDWCLCVEPEDRASATELLHDEYITEIAEANSSLAPLVKLARLKKVAENMDADEDNDDDNDNEHINKTNNCDDNNDSKETVNLDVTEDDKQK
# partner: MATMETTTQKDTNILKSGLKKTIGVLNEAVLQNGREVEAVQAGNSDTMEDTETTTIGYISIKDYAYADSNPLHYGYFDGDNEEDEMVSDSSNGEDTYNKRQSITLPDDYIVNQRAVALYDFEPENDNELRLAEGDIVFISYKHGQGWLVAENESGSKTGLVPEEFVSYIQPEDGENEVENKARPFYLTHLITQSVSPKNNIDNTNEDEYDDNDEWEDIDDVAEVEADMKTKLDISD
# B2: Bud emergence protein 1 (Saccharomyces cerevisiae), P29366 (parent)
# chain: MLKNFKLSKRDSNGSKGRITSADISTPSHDNGSVIKHIKTVPVRYLSSSSTPVKSQRDSSPKNRHNSKDITSPEKVIKAKYSYQAQTSKELSFMEGEFFYVSGDEKDWYKASNPSTGKEGVVPKTYFEVFDRTKPSSVNGSNSSSRKVTNDSLNMGSLYAIVLYDFKAEKADELTTYVGENLFICAHHNCEWFIAKPIGRLGGPGLVPVGFVSIIDIATGYATGNDVIEDIKSVNLPTVQEWKSNIARYKASNISLGSVEQQQQQSITKPQNKSAKLVDGELLVKASVESFGLEDEKYWFLVCCELSNGKTRQLKRYYQDFYDLQVQLLDAFPAEAGKLRDAGGQWSKRIMPYIPGPVPYVTNSITKKRKEDLNIYVADLVNLPDYISRSEMVHSLFVVLNNGFDREFERDENQNNIKTLQENDTATFATASQTSNFASTNQDNTLTGEDLKLNKKLSDLSLSGSKQAPAQSTSGLKTTKIKFYYKDDIFALMLKGDTTYKELRSKIAPRIDTDNFKLQTKLFDGSGEEIKTDSQVSNIIQAKLKISVHDI
# partner: B1 chain
# B3: Serine/threonine-protein kinase STE20 (Saccharomyces cerevisiae), Q03497 (parent)
# chain: B1 chain
# partner: B2 chain
# Variants of: B1
# Conditions: with nbp2_yeast NBP2, Q12163
row,Variant,effect of a mutation on the interaction
1,P475G;P477A,decreasing interaction

# Variants of: B2
# Conditions: with ste20_yeast STE20, Q03497
row,Variant,effect of a mutation on the interaction
1,W192A,decreasing interaction

# Variants of: B3
# Conditions: with bem1_yeast BEM1, P29366
row,Variant,effect of a mutation on the interaction
1,P475G,decreasing interaction
2,P479A,decreasing interaction
3,A476G,decreasing interaction
4,F470G,decreasing interaction
5,P472A,decreasing interaction
6,P475G;P477A,decreasing interaction
7,S473A,decreasing interaction
8,I471G,decreasing interaction
9,P480A,decreasing interaction
10,R474G,decreasing interaction
11,P477A,decreasing interaction

# Variants of: B3
# Conditions: with bem1_yeast BEM1, P29366
# Remark: another data set of the same source
row,Variant,effect of a mutation on the interaction
1,P475G;P477A,decreasing interaction

# Reference: IntAct's records for PubMed 15743816
